From US20210388087A1 (Chugai, published 2021)
Where a chain is given by its changes, count along the chain named.

B1: CE115HA000/GLS3000 N53E (antibody, IgG1, name in Kabat numbering, V domains shown)
VH: QVQLVESGGGVVQPGRSLRLSCAASGFTFSNAWMHWVRQAPGKGLEWVAQIKAKSNNYATYYAESVKGRFTISRDDSKNSLYLQMNSLKTEDTAVYYCRYVHYGAYYGVDAWGQGTTVTVSS
VL: DIVMTQSPLSLPVTPGEPASISCRSSQSLVHSNRNTYLHWYQQKPGQAPRLLIYKVSERFSGVPDRFSGSGSGTDFTLKISRVEAEDVGVYYCGQGTQVPYTFGQGTKLEIK
notes: one-arm IgG1
B2: CE115HA000/GLS3000 Q27L (antibody, IgG1, name in Kabat numbering, V domains shown)
VH: B1 VH
VL: B1 VL with Q27L, E58N
notes: one-arm IgG1
B3: CE115HA000/GLS3000 Q27E (antibody, IgG1, name in Kabat numbering, V domains shown)
VH: B1 VH
VL: B1 VL with Q27E, E58N
notes: one-arm IgG1
B4: CE115HA000/GLS3000 P95E (antibody, IgG1, name in Kabat numbering, V domains shown)
VH: B1 VH
VL: B1 VL with E58N, P100E
notes: one-arm IgG1
B5: CE115HA000/GLS3000 P95S (antibody, IgG1, name in Kabat numbering, V domains shown)
VH: B1 VH
VL: B1 VL with E58N, P100S
notes: one-arm IgG1
B6: CE115HA000/GLS3000 R24E (antibody, IgG1, name in Kabat numbering, V domains shown)
VH: B1 VH
VL: B1 VL with R24E, E58N
notes: one-arm IgG1
B7: CE115HA000/GLS3000 Q93E (antibody, IgG1, name in Kabat numbering, V domains shown)
VH: B1 VH
VL: B1 VL with E58N, Q98E
notes: one-arm IgG1
B8: CE115HA000/GLS3000 N53S (antibody, IgG1, name in Kabat numbering, V domains shown)
VH: B1 VH
VL: B1 VL with E58S
notes: one-arm IgG1
B9: CE115HA000/GLS3000 Q90S (antibody, IgG1, name in Kabat numbering, V domains shown)
VH: B1 VH
VL: B1 VL with E58N, Q95S
notes: one-arm IgG1
B10: CE115HA000/GLS3000 Q90Y (antibody, IgG1, name in Kabat numbering, V domains shown)
VH: B1 VH
VL: B1 VL with E58N, Q95Y
notes: one-arm IgG1
B11: CE115HA000/GLS3000 Q27D (antibody, IgG1, name in Kabat numbering, V domains shown)
VH: B1 VH
VL: B1 VL with Q27D, E58N
notes: one-arm IgG1
B12: CE115HA000/GLS3000 R24P (antibody, IgG1, name in Kabat numbering, V domains shown)
VH: B1 VH
VL: B1 VL with R24P, E58N
notes: one-arm IgG1
B13: CE115HA000/GLS3000 N53V (antibody, IgG1, name in Kabat numbering, V domains shown)
VH: B1 VH
VL: B1 VL with E58V
notes: one-arm IgG1
B14: CE115HA000/GLS3000 N53K (antibody, IgG1, name in Kabat numbering, V domains shown)
VH: B1 VH
VL: B1 VL with E58K
notes: one-arm IgG1
B15: CE115HA000/GLS3000 Q27P (antibody, IgG1, name in Kabat numbering, V domains shown)
VH: B1 VH
VL: B1 VL with Q27P, E58N
notes: one-arm IgG1
B16: CE115HA000/GLS3000 Q93Y (antibody, IgG1, name in Kabat numbering, V domains shown)
VH: B1 VH
VL: B1 VL with E58N, Q98Y
notes: one-arm IgG1
B17: CE115HA000/GLS3000 N53I (antibody, IgG1, name in Kabat numbering, V domains shown)
VH: B1 VH
VL: B1 VL with E58I
notes: one-arm IgG1
B18: CE115HA000/GLS3000 P95D (antibody, IgG1, name in Kabat numbering, V domains shown)
VH: B1 VH
VL: B1 VL with E58N, P100D
notes: one-arm IgG1
B19: CE115HA000/GLS3000 Q90E (antibody, IgG1, name in Kabat numbering, V domains shown)
VH: B1 VH
VL: B1 VL with E58N, Q95E
notes: one-arm IgG1
B20: CE115HA000/GLS3000 N53R (antibody, IgG1, name in Kabat numbering, V domains shown)
VH: B1 VH
VL: B1 VL with E58R
notes: one-arm IgG1
B21: CE115HA000/GLS3000 N53Y (antibody, IgG1, name in Kabat numbering, V domains shown)
VH: B1 VH
VL: B1 VL with E58Y
notes: one-arm IgG1
B22: CE115HA000/GLS3000 N53M (antibody, IgG1, name in Kabat numbering, V domains shown)
VH: B1 VH
VL: B1 VL with E58M
notes: one-arm IgG1
B23: CE115HA000/GLS3000 Q90A (antibody, IgG1, name in Kabat numbering, V domains shown)
VH: B1 VH
VL: B1 VL with E58N, Q95A
notes: one-arm IgG1
B24: CE115HA000/GLS3000 N53P (antibody, IgG1, name in Kabat numbering, V domains shown)
VH: B1 VH
VL: B1 VL with E58P
notes: one-arm IgG1
B25: CE115HA000/GLS3000 N53W (antibody, IgG1, name in Kabat numbering, V domains shown)
VH: B1 VH
VL: B1 VL with E58W
notes: one-arm IgG1
B26: CE115HA000/GLS3000 N53F (antibody, IgG1, name in Kabat numbering, V domains shown)
VH: B1 VH
VL: B1 VL with E58F
notes: one-arm IgG1
B27: CE115HA000/GLS3000 P95A (antibody, IgG1, name in Kabat numbering, V domains shown)
VH: B1 VH
VL: B1 VL with E58N, P100A
notes: one-arm IgG1
B28: CE115HA000/GLS3000 N53L (antibody, IgG1, name in Kabat numbering, V domains shown)
VH: B1 VH
VL: B1 VL with E58L
notes: one-arm IgG1
B29: CE115HA000/GLS3000 Q27R (antibody, IgG1, name in Kabat numbering, V domains shown)
VH: B1 VH
VL: B1 VL with Q27R, E58N
notes: one-arm IgG1
B30: CE115HA000/GLS3000 N53Q (antibody, IgG1, name in Kabat numbering, V domains shown)
VH: B1 VH
VL: B1 VL with E58Q
notes: one-arm IgG1
B31: CE115HA000/GLS3000 Q93S (antibody, IgG1, name in Kabat numbering, V domains shown)
VH: B1 VH
VL: B1 VL with E58N, Q98S
notes: one-arm IgG1
B32: CE115HA000/GLS3000 Q90D (antibody, IgG1, name in Kabat numbering, V domains shown)
VH: B1 VH
VL: B1 VL with E58N, Q95D
notes: one-arm IgG1
B33: CE115HA000/GLS3000 Q93A (antibody, IgG1, name in Kabat numbering, V domains shown)
VH: B1 VH
VL: B1 VL with E58N, Q98A
notes: one-arm IgG1
B34: CE115HA000/GLS3000 Q93D (antibody, IgG1, name in Kabat numbering, V domains shown)
VH: B1 VH
VL: B1 VL with E58N, Q98D
notes: one-arm IgG1
B35: CE115HA000/GLS3000 P95L (antibody, IgG1, name in Kabat numbering, V domains shown)
VH: B1 VH
VL: B1 VL with E58N, P100L
notes: one-arm IgG1
B36: CE115HA000/GLS3000 R24S (antibody, IgG1, name in Kabat numbering, V domains shown)
VH: B1 VH
VL: B1 VL with R24S, E58N
notes: one-arm IgG1
B37: CE115HA000/GLS3000 R24G (antibody, IgG1, name in Kabat numbering, V domains shown)
VH: B1 VH
VL: B1 VL with R24G, E58N
notes: one-arm IgG1
B38: CE115HA000/GLS3000 Q93P (antibody, IgG1, name in Kabat numbering, V domains shown)
VH: B1 VH
VL: B1 VL with E58N, Q98P
notes: one-arm IgG1
B39: CE115HA000/GLS3000 R24D (antibody, IgG1, name in Kabat numbering, V domains shown)
VH: B1 VH
VL: B1 VL with R24D, E58N
notes: one-arm IgG1
B40: CE115HA000/GLS3000 Q93R (antibody, IgG1, name in Kabat numbering, V domains shown)
VH: B1 VH
VL: B1 VL with E58N, Q98R
notes: one-arm IgG1
B41: CE115HA000/GLS3000 N53T (antibody, IgG1, name in Kabat numbering, V domains shown)
VH: B1 VH
VL: B1 VL with E58T
notes: one-arm IgG1
B42: CE115HA000/GLS3000 N53G (antibody, IgG1, name in Kabat numbering, V domains shown)
VH: B1 VH
VL: B1 VL with E58G
notes: one-arm IgG1
B43: CE115HA000/GLS3000 N53H (antibody, IgG1, name in Kabat numbering, V domains shown)
VH: B1 VH
VL: B1 VL with E58H
notes: one-arm IgG1
B44: CE115HA000/GLS3000 R24Q (antibody, IgG1, name in Kabat numbering, V domains shown)
VH: B1 VH
VL: B1 VL with R24Q, E58N
notes: one-arm IgG1
B45: CE115HA000/GLS3000 P95G (antibody, IgG1, name in Kabat numbering, V domains shown)
VH: B1 VH
VL: B1 VL with E58N, P100G
notes: one-arm IgG1
B46: CE115HA000/GLS3000 Q90P (antibody, IgG1, name in Kabat numbering, V domains shown)
VH: B1 VH
VL: B1 VL with E58N, Q95P
notes: one-arm IgG1
B47: CE115HA000/GLS3000 R24A (antibody, IgG1, name in Kabat numbering, V domains shown)
VH: B1 VH
VL: B1 VL with R24A, E58N
notes: one-arm IgG1

The binders below were run against T1, CD3 epsilon homodimer protein (UniProt P07766 23-126) (assay: SPR, antibody over immobilised CD3e homodimer;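 note: SPR at 25 °C with CD3 epsilon homodimer amine-coupled to a CM4 sensor chip and antibody flowed over as analyte in HBS-EP+ running buffer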).
T1 construct: also called CD3 (CD3 epsilon)
T1 sequence (P07766 23-126): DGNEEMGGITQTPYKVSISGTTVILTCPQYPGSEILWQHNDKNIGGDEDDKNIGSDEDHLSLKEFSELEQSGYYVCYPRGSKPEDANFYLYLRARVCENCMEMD

Binder	KD ratio to GLS3000
B1	2.47
B2	0.86
B3	0.99
B4	1.01
B5	1.19
B6	0.89
B7	1.05
B8	0.88
B9	0.96
B10	38.3
B11	0.89
B12	0.34
B13	2.14
B14	1.05
B15	2.16
B16	0.76
B17	2.69
B18	2.37
B19	0.91
B20	1.56
B21	0.99
B22	1.21
B23	0.89
B24	0.98

Binder	KD ratio to GLS3000
B25	1.01
B26	0.96
B27	0.87
B28	1.62
B29	1.06
B30	1.28
B31	0.75
B32	11.1
B33	0.65
B34	0.72
B35	11.7
B36	0.97
B37	0.92
B38	39.5
B39	0.83
B40	0.79
B41	2.68
B42	1.33
B43	1.31
B44	0.87
B45	1.94
B46	15.9
B47	1
